The values below come from patent publication US20220073621A1 (EUCURE BEIJING BIOPHARMA, published 2022).

In one experiment the target is T1, hPD-L1-His (human, UniProt Q9NZQ7 19-238).
T1 construct: Bought protein; also called hPD-L1-His (manufactured by Edison); not shown: His tag
Description: SPR (Biacore T200), antibody on Protein A chip, hPD-L1-His injected, 1:1 fit. Here is the method: Subsequently, the binding affinity of the anti-PD-L1 chimeric antibody, humanized antibody, and marketed control antibody to hPD-L1-His (manufactured by Edison) were determined by surface plasmon resonance (Biacore T200 biosensor, Biacore, INC, Piscataway N.J.) equipped with pre-immobilized Protein A sensor chips.
The detection results were read after the chip was regenerated with pH 2.0 glycine (30 μl/min, 10-20 s). Kinetic association rates (kon) and dissociation rates (koff) were obtained simultaneously by fitting the data globally to a 1:1 Langmuir binding model (Karlsson, R. Roos, H. Fagerstam, L. Petersson, B., 1994. Methods Enzymology 6. 99-110) using Biacore T200 Evaluation Software 3.0. Affinities were deduced from the quotient of the kinetic rate constants (KD=koff/kon).
Background: SPR reads the build-up and loss of mass on a sensor chip optically.

Experiment [1] addresses T2, Mouse PD-L1 on CHO cells (mouse, UniProt Q9EP73 19-290).
T2 construct: Expressed in CHO cells for the cross-reactivity test; also called mPD-L1; murine PD-L1 protein
Description: flow cytometry, CHO-mPD-L1 cells, Anti-mouse-IgGFc-FITC, antibody 1 µg/ml. From the text: (§1) The rhesus monkey PD-L1 protein coding sequence (rmPD-L1, SEQ ID NO: 54), the mouse PD-L1 protein coding sequence (mPD-L1, SEQ ID NO: 53), and the human-mouse chimeric PD-L1 (the extracellular region of the mouse PD-L1 protein was replaced with human protein fragments) protein coding sequence (chiPD-L1, SEQ ID NO: 55) were transferred into CHO cells for protein expression and used for the antibody cross-reactivity testing.
(§2) The test was detailed as follows: a 96-well cell culture plate was used, and the above-mentioned CHO cells expressing different PD-L1 proteins (25 μl, 2×10⁴ cells/well) was added to each well, and then 25 μl of the ascites purified anti-PD-L1 antibodies (1 μg/ml) were added to each well. The mixture was incubated at 4° C. for 30 minutes. The 96-well cell culture plate was centrifuged at 1200 rpm for 5 minutes and washed twice with PBS. Subsequently, 50 μl of anti-mouse IgG Fc-FITC at 1:100 dilution was added to each well, and was incubated at 4° C. for 30 minutes. Subsequently, the 96-well cell culture plate was centrifuged at 1200 rpm for 5 minutes, and washed once with PBS. Then 200 μl of PBS was added to each well, and flow cytometry analysis was performed.
(In flow cytometry, cells or beads pass a laser one at a time.)

Experiment [2] has as its target T2, Mouse PD-L1 on CHO cells. Description: flow cytometry on CHO cells expressing mPD-L1.
Excerpt: as §1, §2

The target of experiment [3] is T3, human-mouse chimeric PD-L1 on CHO cells (human-mouse chimeric, UniProt Q9EP73 19-290 (mouse entry)).
T3 construct: expressed in CHO cells; also called chiPD-L1
T3 chain: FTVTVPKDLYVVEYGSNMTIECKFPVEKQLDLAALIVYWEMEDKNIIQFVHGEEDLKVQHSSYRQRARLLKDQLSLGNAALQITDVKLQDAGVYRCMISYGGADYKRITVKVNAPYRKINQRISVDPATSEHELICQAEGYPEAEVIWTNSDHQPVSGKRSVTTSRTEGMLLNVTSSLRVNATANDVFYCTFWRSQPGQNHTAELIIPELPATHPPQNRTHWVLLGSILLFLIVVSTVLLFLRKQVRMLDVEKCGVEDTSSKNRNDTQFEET
Description: flow cytometry, CHO-chiPD-L1 cells, Anti-mouse-IgGFc-FITC, antibody 1 µg/ml.
Excerpt: as §1, §2

Experiment [4] deals with T4, Rhesus monkey PD-L1 on CHO cells (rhesus monkey, UniProt Q9NZQ7 19-290 (human entry)).
T4 construct: Expressed in CHO cells for the cross-reactivity test; also called rmPD-L1; NP_001077358.1
T4 chain: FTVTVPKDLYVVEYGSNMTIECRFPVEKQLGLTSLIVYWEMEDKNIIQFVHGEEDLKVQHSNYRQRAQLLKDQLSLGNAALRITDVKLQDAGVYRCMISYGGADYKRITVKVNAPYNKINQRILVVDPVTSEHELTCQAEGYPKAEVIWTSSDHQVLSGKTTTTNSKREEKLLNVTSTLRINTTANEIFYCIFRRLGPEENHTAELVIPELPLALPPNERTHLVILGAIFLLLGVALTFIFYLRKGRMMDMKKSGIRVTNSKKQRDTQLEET
Description: flow cytometry, CHO-rmPD-L1 cells, Anti-mouse-IgGFc-FITC, antibody 1 µg/ml.
Excerpt: as §1, §2

Experiment [5] has as its target T2, Mouse PD-L1 on CHO cells. Description: flow cytometry, CHO-mPD-L1 cells, Anti-human IgG Fc-FITC, antibody 1 µg/ml.
Target sequence in this assay (Q9EP73 19-290 limits assumed): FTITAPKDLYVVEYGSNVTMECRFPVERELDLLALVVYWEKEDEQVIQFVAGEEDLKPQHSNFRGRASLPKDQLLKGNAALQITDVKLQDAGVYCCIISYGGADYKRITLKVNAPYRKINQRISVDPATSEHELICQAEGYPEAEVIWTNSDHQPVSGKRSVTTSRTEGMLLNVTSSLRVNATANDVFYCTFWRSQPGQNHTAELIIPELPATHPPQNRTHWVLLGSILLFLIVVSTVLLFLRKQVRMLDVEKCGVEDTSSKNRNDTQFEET

T1 sequence (Q9NZQ7 19-238 limits assumed): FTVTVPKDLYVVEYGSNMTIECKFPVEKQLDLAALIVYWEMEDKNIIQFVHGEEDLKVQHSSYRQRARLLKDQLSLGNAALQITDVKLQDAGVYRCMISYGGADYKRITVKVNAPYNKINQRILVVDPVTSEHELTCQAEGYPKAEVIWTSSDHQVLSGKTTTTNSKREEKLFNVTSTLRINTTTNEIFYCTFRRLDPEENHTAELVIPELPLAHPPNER

B1: 7E4-H3K1-IgG1 (antibody, V domains shown)
VH: QVQLVQSGAEVVKPGASVKISCKGSGFKFTDYAIHWVRQAPGKSLEWMGVISIYYGEASYNQKFKDKVTLTVDTSASTAYMELSSLRSEDTAIYYCAREDYYGSSSYFDYWGQGTLLTVSS
VL: DNQLTQSPSFLSASVGDRVTITCSASSSVSSSYLHWYQQKPGAAPKPLIHRTSNLASGVPSRFSGSGSGTEFTLTISSLQPEDFATYYCQQWSGYPYTFGGGTKLEIK
In the experiment with hPD-L1-His, B1 yielded a Kd of 23.9 nM, a koff of 0.00352 s⁻¹ and a kon of 147000 M⁻¹ s⁻¹.

B2: 7E4-H3K2-IgG1 (antibody, V domains shown)
VH: QVQLVQSGAEVVKPGASVKISCKGSGFKFTDYAIHWVRQAPGKSLEWMGVISIYYGEASYNQKFKDKVTLTVDTSASTAYMELSSLRSEDTAIYYCAREDYYGSSSYFDYWGQGTLLTVSS
VL: DNVLTQSPSFLSASVGDRVTMTCSASSSVSSSYLHWYQQKPGASPKPLIHRTSNLASGVPSRFSGSGSGTEFTLTISSLQPEDFATYYCQQWSGYPYTFGGGTKLEIK
In the experiment with hPD-L1-His, B2 yielded a Kd of 19.3 nM, a koff of 0.00299 s⁻¹ and an association rate constant (kon) of 155000 M⁻¹ s⁻¹.

B3: 7E4-H3K3-IgG1 (antibody, V domains shown)
VH: QVQLVQSGAEVVKPGASVKISCKGSGFKFTDYAIHWVRQAPGKSLEWMGVISIYYGEASYNQKFKDKVTLTVDTSASTAYMELSSLRSEDTAIYYCAREDYYGSSSYFDYWGQGTLLTVSS
VL: ENVLTQSPSFLSASVGDRVTMTCSASSSVSSSYLHWYQQKSGASPKPLIHRTSNLASGVPSRFSGSGSGTEYTLTISSVQPEDFATYYCQQWSGYPYTFGGGTKLEIK
Turning to B3, in the experiment with hPD-L1-His, the affinity, expressed as Kd, was 14.5 nM; the koff came to 0.00218 s⁻¹; the association rate constant (kon) turned out to be 150000 M⁻¹ s⁻¹.

B4: 08-3F2 (antibody, V domains shown)
VH: DVQLQESGPDLVKPSQTLSLTCTVTGYSITSGYNWHWIRQFPGNKLEWMGYIHHSSITNYNPSLKSRISITRDTSKNQFFLQLSSVTTEDTATFYCAREGYDYDWFAYWGQGTLVTVSA
VL: DIVLAQSPATLSVTPGDSVSLSCRASQSISNNLHWYQQKSHESPRLLIKYASQSISGIPSRFSGSGSGTDFTLSINSVETEDFGMYFCQQSKSWPFTFGSGTRLEIK
notes: Murine monoclonal antibody from hybridoma, purified from ascites
For the molecule B4, the “% cells in the FITC-positive gate” value worked out at 7.37% with Mouse PD-L1 on CHO cells [1], 88.3% in experiment [3] and 60.9% in experiment [4]. The binding result in the experiment with Mouse PD-L1 on CHO cells [2] is reported as “no binding (tested: 1 µg/ml)”.

B5: 07-6A11 (antibody, V domains shown)
VH: DVQLVESGGGLVQPGGSRKLSCAASGFTFSSFGMHWVRQAPEKGLEWVAYISSGSNTIYYADTVKGRFTISRDNPKNTLFLQMTSLRSEDTAIYYCTRNGYDGWYAMDYWGQGTSVTVSS
VL: QIVLTQSPAIMSASPGEKVTMTCSASSSVSYIHWFQQKSGTSPKRWIYDTSKLASGVPARFSGRGSGTSYSLTISSMEAEDAATYYCQQWSTNPFTFGSGTKLEIK
notes: as for B4
In the case of B5, the “% cells in the FITC-positive gate” value in the experiment with Mouse PD-L1 on CHO cells [1] turned out to be 4.56%; in experiment [3], 77.4%; in experiment [4], 51.4%. Also, in the experiment with Mouse PD-L1 on CHO cells [2], the binding result is recorded as “no binding (tested: 1 µg/ml)”.

B6: 33-10C9-mHvKv-IgG1 (antibody, V domains shown)
VH: QVQLQQPGAELVKPGSSVKLSCKASGYTFTTYYIYWVKQRPGQGLEWIGGINPYNGGTSFNEKFESKATLTVDISSSTAFMQLSSLTSEDSAVYYCTRDGNYVDYWGQGTTLTVSS
VL: QIVLTQSPAIMSASPGEKVTITCSASSTVSYVHWLQQKPDTSPKLWIYSTSNLASGVPARFSGSGSGTSYSLTISRMEAEDAATYYCQQRSSSPPTFGSGTKLEIK
Turning to B6, the “% cells in the FITC-positive gate” value with Mouse PD-L1 on CHO cells [5] stood at 0.556%. For the same molecule, in the experiment with Mouse PD-L1 on CHO cells [2], the binding result is “no binding (tested: 1 µg/ml)”.

B7: 24-1F4-mHvKv-IgG1 (antibody, V domains shown)
VH: EVQLRESGPSLVRPSQTLSLTCSVTGDSFTSGYWNWIRKFPGNELESMGYISYSGSTYYNPSLKSRISITRDTSKSQFYLQLSSVTAEDTATYYCARSEGWLLPFAYWGQGTLVTVSA
VL: DIVMSQSPSSLPVSVGEKVTMSCKSSQSLLYSSNQKNSLAWYQQKPGQSPKLLIYWASTRESGVPDRFTGSGSGTDFTLTISSVQAEDLSVYYCQQYYGYPFTFGSGTKLEIK
As for B7, the “% cells in the FITC-positive gate” value with Mouse PD-L1 on CHO cells [5] was 15.5%. Moreover, the binding result with Mouse PD-L1 on CHO cells [2] is “no binding (tested: 1 µg/ml)”.

B8: 23-4A8-mHvKv-IgG1 (antibody, V domains shown)
VH: EVQLQESGPSLVKPSQTLSLTCSVTGDSITSGYWNWIRKFPGNKLEYMGYISYTGSTYYNPSLKSRFSITRDTSKNQYFLQLNSVTTEDTATYYCASYEGWLLPFAYWGQGTLVTVSA
VL: DIVMSQSPSSLAVSVGEKVPLSCKSSQSLLYSSNQKSSLAWYQQKPGQSPKLLIYWASTRESGVPDRFTGSGSGTDFTLTISSVKAEDLAVYYCQQYYGYPFTFGSGTKLEIK
For the molecule B8, the “% cells in the FITC-positive gate” value in the experiment with Mouse PD-L1 on CHO cells [5] was determined as 3.07%. The binding result with Mouse PD-L1 on CHO cells [2] is recorded as “no binding (tested: 1 µg/ml)”.

B9: 17-7E4 (antibody, V domains shown)
VH: QVQLQQSGAELVRPGVSVKISCKGSGFKFTDYAIHWVKQSHAKSLEWIGVISIYYGEASYNQKFKDKATLTVDTSSSTAYMELARLTSEDSAIYYCAREDYYGSSSYFDYWGQGTALTVSS
VL: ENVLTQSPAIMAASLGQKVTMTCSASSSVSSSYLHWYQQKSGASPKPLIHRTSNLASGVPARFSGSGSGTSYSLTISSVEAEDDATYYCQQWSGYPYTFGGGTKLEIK
notes: as for B4
B9: the “% cells in the FITC-positive gate” value with Mouse PD-L1 on CHO cells [1] turned out to be 1.1%; in experiment [3], 67.8%; in experiment [4], 64.9%. Besides, in the experiment with Mouse PD-L1 on CHO cells [2], the binding result is recorded as “no binding (tested: 1 µg/ml)”.

B10: 23-2A6-mHvKv-IgG1 (antibody, V domains shown)
VH: QVQLKESGPGLVAPSQSLSITCTVSGFSLTSYDISWIRQPPGKGLEWLGAIWTGGGTNYNSAFMSRLSISKDNSKSQVFLKMNSLQTDDTAIYYCVRDPYYYAMDYWGQGTSVTVSS
VL: DIQMNQSPSSLSASLGDTITITCHASQNLNVWLSWYQQKPGNIPKLLIYKASNLHTGVPSRFSGSGSGTGFTLTISSLQPEDIATYYCQQGQSYPRTFGGGTKLEIK
On to B10, for which the “% cells in the FITC-positive gate” value with Mouse PD-L1 on CHO cells [5] is 0.886%. Moreover, in the experiment with Mouse PD-L1 on CHO cells [2], the binding result is “no binding (tested: 1 µg/ml)”.

The term Kd denotes the constant that tells how readily two partners part at equilibrium. What is called koff is the rate constant with which the complex falls apart. As usually defined, the kon is the second-order rate constant of association.
